In patent US5298404:

Tests used:
[1] = tested on: HpaI restriction endonuclease (native) (Haemophilus parainfluenzae); test: cleavage_in_vitro; details: 10 mM Tris pH 7.5, 10 mM MgCl2, 100 mM NaCl, 37 C
[2] = tested on: HpaI restriction endonuclease (recombinant) (Haemophilus parainfluenzae); test: cleavage_in_vitro; details: assay as for native enzyme; Mg2+, 37 C

With phage lambda DNA the activity [1] was 250000 units/mg and the activity [2] was 250000 units/mg.
